Data reported in publication PMC11949052.

Experiment: ELISA and Western blot of HEK293T supernatants
Conditions: glycan lost; control: wild type

Row | Protein | expression_or_secretion, percent_of_wt
1 | C1-esterase inhibitor (C1-INH): N253A (protein) parent chain: MASRLTLLTLLLLLLAGDRASSNPNATSSSSQDPESLQDRGEGKVATTVISKMLFVEPILEVSSLPTTNSTTNSATKITANTTDEPTTQPTTEPTTQPTIQPTQPTTQLPTDSPTQPTTGSFCPGPVTLCSDLESHSTEAVLGDALVDFSLKLYHAFSAMKKVETNMAFSPFSIASLLTQVLLGAGENTKTNLESILSYPKDFTCVHQALKGFTTKGVTSVSQIFHSPDLAIRDTFVNASRTLYSSSPRVLSNNSDANLELINTWVAKNTNNKISRLLDSLPSDTRLVLLNAIYLSAKWKTTFDPKKTRMEPFHFKNSVIKVPMMNSKKYPVAHFIDQTLKAKVGQLQLSHNLSLVILVPQNLKHRLEDMEQALSPSVFKAIMEKLEMSKFQPTLLTLPRIKVTTSQDMLSIMEKLEFFDFSYDLNLCGLTEDPDLQVSAMQHQTVLELTETGVEAAAASAISVARTLLVFEVQQPFLFVLWDQQHKFPVFMGRVYDPRA | no change
2 | C1-esterase inhibitor (C1-INH): N238A (protein) parent chain: MASRLTLLTLLLLLLAGDRASSNPNATSSSSQDPESLQDRGEGKVATTVISKMLFVEPILEVSSLPTTNSTTNSATKITANTTDEPTTQPTTEPTTQPTIQPTQPTTQLPTDSPTQPTTGSFCPGPVTLCSDLESHSTEAVLGDALVDFSLKLYHAFSAMKKVETNMAFSPFSIASLLTQVLLGAGENTKTNLESILSYPKDFTCVHQALKGFTTKGVTSVSQIFHSPDLAIRDTFVNASRTLYSSSPRVLSNNSDANLELINTWVAKNTNNKISRLLDSLPSDTRLVLLNAIYLSAKWKTTFDPKKTRMEPFHFKNSVIKVPMMNSKKYPVAHFIDQTLKAKVGQLQLSHNLSLVILVPQNLKHRLEDMEQALSPSVFKAIMEKLEMSKFQPTLLTLPRIKVTTSQDMLSIMEKLEFFDFSYDLNLCGLTEDPDLQVSAMQHQTVLELTETGVEAAAASAISVARTLLVFEVQQPFLFVLWDQQHKFPVFMGRVYDPRA | no change
3 | C1-esterase inhibitor (C1-INH): S255G (protein) parent chain: MASRLTLLTLLLLLLAGDRASSNPNATSSSSQDPESLQDRGEGKVATTVISKMLFVEPILEVSSLPTTNSTTNSATKITANTTDEPTTQPTTEPTTQPTIQPTQPTTQLPTDSPTQPTTGSFCPGPVTLCSDLESHSTEAVLGDALVDFSLKLYHAFSAMKKVETNMAFSPFSIASLLTQVLLGAGENTKTNLESILSYPKDFTCVHQALKGFTTKGVTSVSQIFHSPDLAIRDTFVNASRTLYSSSPRVLSNNSDANLELINTWVAKNTNNKISRLLDSLPSDTRLVLLNAIYLSAKWKTTFDPKKTRMEPFHFKNSVIKVPMMNSKKYPVAHFIDQTLKAKVGQLQLSHNLSLVILVPQNLKHRLEDMEQALSPSVFKAIMEKLEMSKFQPTLLTLPRIKVTTSQDMLSIMEKLEFFDFSYDLNLCGLTEDPDLQVSAMQHQTVLELTETGVEAAAASAISVARTLLVFEVQQPFLFVLWDQQHKFPVFMGRVYDPRA | no change
4 | C1-esterase inhibitor (C1-INH): S354G (protein) parent chain: MASRLTLLTLLLLLLAGDRASSNPNATSSSSQDPESLQDRGEGKVATTVISKMLFVEPILEVSSLPTTNSTTNSATKITANTTDEPTTQPTTEPTTQPTIQPTQPTTQLPTDSPTQPTTGSFCPGPVTLCSDLESHSTEAVLGDALVDFSLKLYHAFSAMKKVETNMAFSPFSIASLLTQVLLGAGENTKTNLESILSYPKDFTCVHQALKGFTTKGVTSVSQIFHSPDLAIRDTFVNASRTLYSSSPRVLSNNSDANLELINTWVAKNTNNKISRLLDSLPSDTRLVLLNAIYLSAKWKTTFDPKKTRMEPFHFKNSVIKVPMMNSKKYPVAHFIDQTLKAKVGQLQLSHNLSLVILVPQNLKHRLEDMEQALSPSVFKAIMEKLEMSKFQPTLLTLPRIKVTTSQDMLSIMEKLEFFDFSYDLNLCGLTEDPDLQVSAMQHQTVLELTETGVEAAAASAISVARTLLVFEVQQPFLFVLWDQQHKFPVFMGRVYDPRA | no change
5 | C1-esterase inhibitor (C1-INH): N352A (protein) parent chain: MASRLTLLTLLLLLLAGDRASSNPNATSSSSQDPESLQDRGEGKVATTVISKMLFVEPILEVSSLPTTNSTTNSATKITANTTDEPTTQPTTEPTTQPTIQPTQPTTQLPTDSPTQPTTGSFCPGPVTLCSDLESHSTEAVLGDALVDFSLKLYHAFSAMKKVETNMAFSPFSIASLLTQVLLGAGENTKTNLESILSYPKDFTCVHQALKGFTTKGVTSVSQIFHSPDLAIRDTFVNASRTLYSSSPRVLSNNSDANLELINTWVAKNTNNKISRLLDSLPSDTRLVLLNAIYLSAKWKTTFDPKKTRMEPFHFKNSVIKVPMMNSKKYPVAHFIDQTLKAKVGQLQLSHNLSLVILVPQNLKHRLEDMEQALSPSVFKAIMEKLEMSKFQPTLLTLPRIKVTTSQDMLSIMEKLEFFDFSYDLNLCGLTEDPDLQVSAMQHQTVLELTETGVEAAAASAISVARTLLVFEVQQPFLFVLWDQQHKFPVFMGRVYDPRA | no change
6 | C1-esterase inhibitor (C1-INH): N352S (protein) parent chain: MASRLTLLTLLLLLLAGDRASSNPNATSSSSQDPESLQDRGEGKVATTVISKMLFVEPILEVSSLPTTNSTTNSATKITANTTDEPTTQPTTEPTTQPTIQPTQPTTQLPTDSPTQPTTGSFCPGPVTLCSDLESHSTEAVLGDALVDFSLKLYHAFSAMKKVETNMAFSPFSIASLLTQVLLGAGENTKTNLESILSYPKDFTCVHQALKGFTTKGVTSVSQIFHSPDLAIRDTFVNASRTLYSSSPRVLSNNSDANLELINTWVAKNTNNKISRLLDSLPSDTRLVLLNAIYLSAKWKTTFDPKKTRMEPFHFKNSVIKVPMMNSKKYPVAHFIDQTLKAKVGQLQLSHNLSLVILVPQNLKHRLEDMEQALSPSVFKAIMEKLEMSKFQPTLLTLPRIKVTTSQDMLSIMEKLEFFDFSYDLNLCGLTEDPDLQVSAMQHQTVLELTETGVEAAAASAISVARTLLVFEVQQPFLFVLWDQQHKFPVFMGRVYDPRA | no change
